Assay results: publication PMC9907207 (Nature Communications, 2023)

Tests used:
Assay in all cases: BLI
Conditions in all cases: both partners purified
SARS-CoV-1 RBD = SARS-CoV-1 RBD (SARS-CoV (SARS-CoV-1), isolate not …, UniProt P59594)
[1] = target: T1, SARS-CoV-2 RBD (residues 319-541), ancestral strain (SARS-CoV-2, UniProt P0DTC2)
T1 construct: source: Expi293, purified (Talon resin)

bat RaTG12-CoV RBD = bat RaTG12-CoV RBD (Bat coronavirus RaTG13 (printed as …, UniProt A0ABF7PLN6))

Measured: binding result

B1: GAR03, human IgG1 monoclonal antibody (antibody, V domains shown)
VH: QVQLVQSGAEVKKPGASVKVSCKASGYTFSSYDINWVRQAPGQGLEWMGWMSPNSGNTGYAQKFQGRVTMTRSTSMSTAYMELSSLRSEDTAVYFCARMSSSLTNYLDYWGQGTLVTVSS
VL: SYVLTQPPSVAVAPGQTARIRCGENDIGSKNVHWYQQKSGQAPVLVVYDDSDRPSGIPERFSGSNSGNTATLTISRVEAGDEADYYCQVWDSTGDHPDVVFGGGTKLTVL
notes: source: ExpiCHO, purified (Protein G resin)
binds: all assays above
